According to the nanobody polyreactivity screen of Harvey et al. (2022):

Assay: yeast display, Sf9 membrane polyspecificity reagent, FACS + sequencing; frameworks hold sequencing errors
Summary of the method: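 Nanobodies from a synthetic yeast display library (Saccharomyces cerevisiae BJ5465), induced 36–48 hours with galactose, were stained 1 hour at 4 °C with 10% biotinylated, detergent-solubilized Sf9 membrane reagent, enriched on streptavidin microbeads, then FACS-sorted. Anti-HA (expression) and streptavidin (reagent binding) fluorescence set low and high (top ~1%) gates. Polyreactivity labels come from the gate of origin. Genes were colony-PCR amplified, MiSeq 2 × 250 sequenced and filtered by CDR length.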

Q: Which “polyreactivity (PSR sort gate)” value does the source give for “QVQLVESGGGLVQAGGSLRLSCAASGRIFRGYAMGWYRQAPGKERELVAAINGGDSTYADSVKGRFTISRDNAKNTVFLQMNSLIPEDTAVYYCAAAHYFLGPQGASFYYWGQGTQVTVSS” here?
A: low polyreactivity

Q: Which “polyreactivity (PSR sort gate)” value does the source give for “QVQLVESGGGLVQAGGSLRLSCAASGRTFGSYAMGWYRPAPGKERELVAGISWSGGITYYADSVKGRFTISRDNAKNSVYLQMNSLKPEDTAVYYCAADSVVWEMEYWGQGTQVTVSS” here?
A: high polyreactivity

Q: Which “polyreactivity (PSR sort gate)” value does the source give for “QVQLEESGGGLVQAGGSLRLICAAYGIIFYIYTMGWYRQEPVKERELVAAINPGGSRYYADSVKGRFTISRDNAKNTVYLQMNSLKPEDTAVYYCNKLSYGRSGYWGQGTEVTVSS” here?
A: high polyreactivity

Q: With “QVQLVESGVGLVKAGGSLRLSCAASGITFGFYAMGWYRQAPGKDRELVASISSRGGSTNYADSVKGRFTISRDNAKNTVYLQMNSLKPEDTAVYYCAVAWLVRGGGGRRTFYSWGQGTQVTVSS” as the sequence, how does the “polyreactivity (PSR sort gate)” value read?
A: high polyreactivity

Q: For “QVQLEETGGGLVQAGGSLRLSCAASGLTFGVYAMGRYRQAPGKEMELVAAITWRGDTTYYADSVKGRFTISRYNAKNTVYLQMNSLKPEDSAVYYCAKDVPYRRVRSEYWGQGTQVTVSS”, which “polyreactivity (PSR sort gate)” value is on record?
A: low polyreactivity

Q: For “QVLRVDSGGGLVQAGGSLRLSCAASGSIFGFYARGWDRQAPGTERELVAAITFSGGSTDYTDSVKGRFTISSDNAKNTVYLQMNSLKTEDTSVYYCADRGYAIYSYWYYEPYDYWGQGTQVTVSS”, which “polyreactivity (PSR sort gate)” value is on record?
A: high polyreactivity

Q: With “QVQLVESGGGLVQERGSLRLSCADSGFIFWYYAMGWDRQAPGKERELVAAISWSGDSTYYADSVKGRFTISRDNANNTVYLQMKSLKPEYTAVYYCAVYEELDVFYNGYDYWGQGTQVTVSS” as the sequence, how does the “polyreactivity (PSR sort gate)” value read?
A: high polyreactivity

Q: With “QVQLVESGGGLVQAGGSLRLSCAASGRILYVNAMGWYRQAPGKERELVAAISWRGGRTYYADSVKGRFTISRDHAKNTVYLQMNSLKPEDTAVYYCAARARGGYQRDYWGQGTQVTVSS” as the sequence, how does the “polyreactivity (PSR sort gate)” value read?
A: high polyreactivity

Q: For “QVQLVESGGGLVQAGGSLRLSCAASGSIFLSYDMGWYRQAPGNESELVAAITQSGGSTYYADSVKGRFTISRDNAKNTVYLQMNSLKPEDTAVYYCAADYGYFPQETYPTYGYYYWGQGTQVTVSS”, which “polyreactivity (PSR sort gate)” value is on record?
A: low polyreactivity

Q: For “QVQLVESGGGLVQAGGSLRLSCAASGSIFGLYAMGWYRQAPGKERELVAAINQSGGSTSYADSVKGRFTISRDNAKNTVYLQMNSLKPEDTAVYYCNRVRLNSEGFDYWGQGTQVTVSS”, which “polyreactivity (PSR sort gate)” value is on record?
A: low polyreactivity

Q: For “QVQLVESGGGLVQAAGSLRLSCAASGSTFPYYAMGWYRQAPGQERELVAAIPRSGGSTYSADSVKGRFTISRDHAKNTVYLQMNSLKPEDTAVYYCAAKLAQRYFYRYDYWGPGTQVTVSS”, which “polyreactivity (PSR sort gate)” value is on record?
A: high polyreactivity

Q: With “QVQLEESGGGLVQAGGSLRLSCAASGRIFWWYGMGWYREAPGKERELVASITYSGVSTYYADSVKGRFTISRDNAKNTVYLQMNSLTPEDTAVYYCAADRSRYFSYKYDYWGQGTQVTVSS” as the sequence, how does the “polyreactivity (PSR sort gate)” value read?
A: high polyreactivity

Q: With “QVQLVESRGRLDQAGGSLRLSCAAYARIFAVYAMGWYRQAPGKESEFVATITYNAGSTYYADSVKGRFTISRDNAKNTVNLQMNSLKPEDTAVYYCAVELDSEPAYEPWTEYDYWGQGTQVTVSS” as the sequence, how does the “polyreactivity (PSR sort gate)” value read?
A: low polyreactivity

Q: For “QVQLVESGGGLVQAGGSLRLSCAASGINLNNYPLGSYRQAPGKDRELVAAITSSGTRTYYADSVKGRFTISRDNAKINVYLQMNSLKPEDTAVYYCAAQPVYDLWGQGTQVTVSS”, which “polyreactivity (PSR sort gate)” value is on record?
A: high polyreactivity

Q: For “QVQLVESGGGLVQAGGSLRLSCAASGRTFRGNAMGWYRQAPGKERELVAAIRYRGGSTYYADSVKGRFTISRDNAKNTVYLQMNSLKPEDTAVYYCARRYTVHTQHYDYWGQGTQVTVSS”, which “polyreactivity (PSR sort gate)” value is on record?
A: high polyreactivity

Q: Which “polyreactivity (PSR sort gate)” value does the source give for “HGQLVESGGGLVHAGGSLRLSCAASGSTFAIYALGWYREAPGKERELVAGITGRGTSTYYADSVKGRFTISRDNAKNTVYLQMNSLKPEDTAVYYCNKVRYAFRYDYWGQGTQVTVSS” here?
A: high polyreactivity

Q: With “QVQLVESGGGLVQAGGSLRLSCAASGSIFNSYDMGWYRQAPGKERELVAAIRSRVGSTYYADSVKGRFTISRDNAKNSVYLQMNSLKQEDTAVYYCIKDNAVDRLPWFQVTYDYWGQGTQVTVSS” as the sequence, how does the “polyreactivity (PSR sort gate)” value read?
A: low polyreactivity

Q: For “QVQLVESGGGLVQAGGSLRLSCAASGNIFSYYAIGSYRHAPRKEREFVAANDWNGGTTYYADSVKGRFTISRDNAKNTVYLQMNSLKPEDTAVYYCAAEYGTWYIPEGEYWGQGTQVTVSS”, which “polyreactivity (PSR sort gate)” value is on record?
A: high polyreactivity

Q: For “QVQLVESGGGLVQAGGSLGLSCAASGLTFSRYAMGWYREAPGKEWELVASISQGGGSTYYADSVKGRFTISRDNPKKTVYLQMNSLKPEDTAVYYCIRLTIGSSSYDYWGQGTKVTVSS”, which “polyreactivity (PSR sort gate)” value is on record?
A: high polyreactivity

Q: For “QVQLVESGGGLVQAGGSHRLSCAASGRTFYRYVMGWYRQAPGKERELVAAIRSSGTSTYYADSVKGRFTISRDNAKNTVYLQINSLKPEDTAVNYCARDSYRGYVYSLDYWGQGNQVTVSS”, which “polyreactivity (PSR sort gate)” value is on record?
A: high polyreactivity

Q: With “QVQLVESGGGLVQAGGSLRLSCAASGNTIKGYAMGLYRQAPGKERELVAAISWSGSSTYYADSVKGRFTISRDNAKYSVYLHKNSVKPEDTAVYYCNRKYLGRYASVYGYGYWGQGTQVTVSS” as the sequence, how does the “polyreactivity (PSR sort gate)” value read?
A: high polyreactivity

Q: Which “polyreactivity (PSR sort gate)” value does the source give for “QDHLVESGGGLVQAGGSLRLSCAASGRIFGGYVMGRYRQAPGTERELVAAINGGGGSTYYADSVKGRFTISRDNAKNTVYLQMNSLKPEDTAVYYCMLVKRSQRKSTIDFDYWGQGTQVTVSS” here?
A: high polyreactivity

Q: With “QVQLVESGGGLVQAGGSLRLSCAASGRTFVYNAMGWYRQAPGKERELVAAIRFSGGRTYYADSVKGRFTISRDNAKNTVYLQMNSLKPEDTAVYYCAVTGELTLYTWRSFEYYYWGQGTQVTVSS” as the sequence, how does the “polyreactivity (PSR sort gate)” value read?
A: low polyreactivity

Q: For “QDQLVESGGGLVQAGGSLRLSCPASGFTFERNTMGWYRQAPGKERELVAVITRRGGNTNYADSVKGRFTISRDNAKNTVYLQMNSLKPEDTAVYYCAAYYSHYGTRYDYWGQGTQVTVSS”, which “polyreactivity (PSR sort gate)” value is on record?
A: high polyreactivity

Q: With “QVQLVESGGGLVQAGGSLRLSCAASGITFVNYAMGWYIQAPGKERELVAAISQSGAITFYADSVKGRFTISRDYAKNNVYLQMNSLKPEDTEVYYCAARRRRGDRSAYDYWGQGTQVTVSS” as the sequence, how does the “polyreactivity (PSR sort gate)” value read?
A: high polyreactivity

Q: Which “polyreactivity (PSR sort gate)” value does the source give for “QVQLVESGGGLVQAGGSLRLSCAASGFTFVYNAMGWYRQAPGKERELVAAISKSGDRTYYADSVKGRFTISRDYAKNTVYLQMNSLKPEDTAVYYCNAKVVHGYQRFNYWGQGTEVTVSS” here?
A: high polyreactivity

Q: With “QVQLVESGGGLVQAGGSLRLSCAAAGRTFGDYDMGWYRQAPGKERELVAAITSDGTTYYADSVKGRFTISRDNAKNTVYLQMNSLKPEDTAVYYCAADYWYVSWYDYWGQGTQVTVSS” as the sequence, how does the “polyreactivity (PSR sort gate)” value read?
A: low polyreactivity

Q: For “QVQLVESGGGLVQAGGSLRLICAASGSTFDGYAMGWYRQAPGKERELVAAISKNGVRTYYADSVKGRFTISRDNAKNTVYLLMNSLKPEDTAVYYCAKDIIKYDYDYWGQGTQVTVSS”, which “polyreactivity (PSR sort gate)” value is on record?
A: low polyreactivity

Q: With “QVQLVESGGGLVQAGGSLRLSCAASGSIFSYYTMGWYRQAPGTERELVAASTRGGRTSYADSVKGRFTISRDNAKNTVYLQMNSLKPEDTAVYYCAADYWYFTHQLSTYGDNYWGQGTQVTVSS” as the sequence, how does the “polyreactivity (PSR sort gate)” value read?
A: low polyreactivity

Q: For “QVQLVESGGGLVQAGGSLRLSCAASGSILWQYAMGWSRQAPGKERELVAAITYSGASTHYADSVKGRFTISRDNAKNTVYLQMNRLKPEDTAVYYCAAGYWYRYAALRYDHWGQGTQVTVSS”, which “polyreactivity (PSR sort gate)” value is on record?
A: low polyreactivity

Q: With “QVQLVESGVGLVQAGGSLRLSCAASGRTFVNNAMGWYRQAPGKERELVAAISQSGSRTYYADSVKRRFTISRDNAKNTVYLQMNSLKPEDTAVYYCAARGARYSTSDYWGQGTQVTVSS” as the sequence, how does the “polyreactivity (PSR sort gate)” value read?
A: high polyreactivity
